Experiment [1] has as its target T1, PKR1 (Homo sapiens, UniProt Q8TCW9). As to the kind of experiment: Intracellular Ca2+ mobilization (FLIPR, Fluo-3) in PKR1 expressing HEK 293 cells. Format: cell-based. Also on record: The full-length cDNA coding regions for both PKR1 and PKR2 were PCR-amplified from human fetal brain cDNA; expressed in transfected cells; (transient, pCIneo). Here is the method:
(§1) FIGS. 5A and 5B graphically illustrate that PKs stimulate Ca^2+ mobilization in HEK 293 cells expressing PKR1 or PKR2 at different potencies. HEK 293 cells transiently expressing PKR1 or PKR2 were seeded in 96-well plates, loaded with Ca^2+ dye Fluo-3 and then stimulated with different concentrations of PK1, PK2 or PK2β. The release of Ca^2+ was measured with a fluorescence imaging plate reader (FLIPR). The results are mean values (±S.E.M) of triplicate experiments. […] FIG. 5B provides the results for Ca^2+ mobilization in PKR2 expressing cells (legend: ▪, PK1; ▴, PK2; ▾, PK2β).
(§2) Intracellular Ca^2+ Mobilization Assays. PKR1 and PKR2 in the expression vector pCIneo (Promega) were transfected into HEK293 cells using LipofectAmine (Invitrogen). Two days after transfection, cells were detached using PBS containing 10 mM EDTA and seeded in poly-D-lysine coated 96-well black tissue culture plates (BD Biosciences).
(In general: A change in cytosolic calcium serves as a functional read-out for many receptors and channels.)

Experiment [2] addresses T2, PKR2 (Homo sapiens, UniProt Q8NFJ6). As to the kind of experiment: Intracellular Ca2+ mobilization (FLIPR, Fluo-3) in PKR2 expressing HEK 293 cells. Format: cell-based. Also on record: The full-length cDNA coding regions for both PKR1 and PKR2 were PCR-amplified from human fetal brain cDNA; expressed in transfected cells; (transient, pCIneo). As for the experimental part: as §1, §2

Experiment [3] deals with T1, PKR1. As to the kind of experiment: Radioligand competition binding assay (125I-PK2-f), PKR1 expressing COS-7 cells. The conditions noted are these: FIG. 4A. Also on record: The full-length cDNA coding regions for both PKR1 and PKR2 were PCR-amplified from human fetal brain cDNA; expressed in transfected cells; host or cells: COS-7 (transient, pCIneo). Here is the method:
(§3) FIGS. 4A and 4B graphically illustrate that PKs bind the PKR1 and PKR2 with different affinities. COS-7 cells transiently expressing PKR1 or PKR2 were seeded to 96-well plates. ^125I-labeled PK2-f was added to each well at a final concentration of 100 pM. Different concentrations of PK1, PK2 or PK2β were added to the assays as the competitors. All assays were performed in triplicates. The results are mean values (±S.E.M) of triplicates. FIG. 4A provides the results of the binding assay using PKR1 expressing cells.
(§4) Expression, purification, and iodination of C-terminal FLAG-tagged PK2. C-terminal FLAG-tagged PK2 (PK2-f) was constructed as described (Soga et al., 2002). Two primers P9: ATCGAGAATTCGCCACCATGAGGAGCCTGTGCTGCGCCC (SEQ.ID.NO.:11) and P10: GGATCCCTACTTATCGTCGTCATCCTTATAATCCTTTTGGGCTAAACA (SEQ.ID.NO.:12) were used to amplify human whole brain cDNA (Clontech). The PCR-amplified PK2-f was cloned into a mammalian expression vector pCMV-sport1 (Invitrogen). The resulting clones were sequenced to confirm the identities and transfected into COS-7 cells using LipofectAmine (Invitrogen). Three days after transfection, the cell culture supernatant was collected and run through an ANTI-FLAG M2 agarose (Sigma) affinity column. The column was washed with PBS and eluted with […] Glycine HCl, pH 3.0. The eluted protein fraction was immediately neutralized with 1 M Tris-HCl, pH 8.0 and then further purified by reverse-phase HPLC using a C4 column (Vydac). The purified recombinant PK2-f protein was iodinated using Iodogen reagent (Pierce, Rockford, Ill.) and ^125I-NaI (PerkinElmer, Boston, Mass.) as described by Pierce. The iodinated PK2-f was purified by a G-50 (Amersham Pharmacia Biotech) gel filtration column.
(§5) Radio-Ligand Binding Assays. PKR1 and PKR2 in the expression vector pCIneo (Promega) were transfected into COS-7 cells using LipofectAmine (Invitrogen). […] After the plates were washed three times with ice cold PBS, Microscint-40 (Packard, Meriden, Conn.) was added and the plates were counted on a Topcount (Packard).

Experiment [4] addresses T2, PKR2. As to the kind of experiment: Radioligand competition binding assay (125I-PK2-f), PKR2 expressing COS-7 cells. Also on record: The full-length cDNA coding regions for both PKR1 and PKR2 were PCR-amplified from human fetal brain cDNA; expressed in transfected cells; host or cells: COS-7 (transient, pCIneo). Conditions: FIG. 4B. Here is the method: as §3, §4, §5
Experiment [5] has as its target T2, PKR2. As to the kind of experiment: cAMP accumulation (cAMP [125I] FlashPlate) in HEK 293 cells co-expressing PKR2/Gs. Format: cell-based. Also on record: The full-length cDNA coding regions for both PKR1 and PKR2 were PCR-amplified from human fetal brain cDNA; expressed in transfected cells; host or cells: HEK293 (transient, pCIneo, co-transfected with Gs plasmid). Conditions: FIG. 8C. Here is the method:
FIGS. 8B and 8C illustrate results from HEK 293 cells co-expressing PKR1/Gs (FIG. 8B) or PKR2/Gs (FIG. 8C) stimulated with different PKs at various concentrations (the accumulated cAMP was measured by a cAMP [^125I] FlashPlate Assay kit; the results are mean values (±S.E.M) of triplicate experiments (legend: ▪, PK1; ▴, PK2; ▾, PK2β)).
In a different experiment, PKR1 and PKR2 in the expression vector pCIneo (Promega) were co-transfected with the Gs expression plasmid into HEK293 cells using LipofectAmine (Invitrogen). Two days after transfection, cells were detached with 10 mM EDTA in PBS, resuspended in Dulbecco's Modified Eagle's Medium/F12 (DMEM/F12) media, and then plated on 96-well plates at a density of 50,000 cells per well. Two hours after the seeding, cells culture medium was replaced with DMEM/F12 containing 2 mM isobutylmethylxanthine (Sigma) and incubated for 30 min. Different concentrations of PK1, PK2 or PK2β were added to cells and incubated for an additional 30 min in a final volume of 200 μl/well. The reaction was stopped and cAMP was extracted by adding 20 μl of 0.5 N HCl to each well. Cell culture media were tested for cAMP concentrations by the cAMP [^125I] FlashPlate Assay kit (PerkinElmer) as described by the manufacturer.

T2 sequence (Q8NFJ6 whole entry): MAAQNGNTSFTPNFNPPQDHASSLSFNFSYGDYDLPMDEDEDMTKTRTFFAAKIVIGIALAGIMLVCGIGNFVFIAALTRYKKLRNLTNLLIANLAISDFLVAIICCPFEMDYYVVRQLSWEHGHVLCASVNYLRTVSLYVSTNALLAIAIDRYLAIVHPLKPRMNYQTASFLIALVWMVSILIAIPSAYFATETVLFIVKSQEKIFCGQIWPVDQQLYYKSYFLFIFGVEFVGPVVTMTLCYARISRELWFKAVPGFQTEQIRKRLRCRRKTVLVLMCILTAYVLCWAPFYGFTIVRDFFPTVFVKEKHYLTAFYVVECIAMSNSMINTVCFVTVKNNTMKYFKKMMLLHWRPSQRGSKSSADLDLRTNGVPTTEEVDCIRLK
T1 sequence (Q8TCW9 whole entry): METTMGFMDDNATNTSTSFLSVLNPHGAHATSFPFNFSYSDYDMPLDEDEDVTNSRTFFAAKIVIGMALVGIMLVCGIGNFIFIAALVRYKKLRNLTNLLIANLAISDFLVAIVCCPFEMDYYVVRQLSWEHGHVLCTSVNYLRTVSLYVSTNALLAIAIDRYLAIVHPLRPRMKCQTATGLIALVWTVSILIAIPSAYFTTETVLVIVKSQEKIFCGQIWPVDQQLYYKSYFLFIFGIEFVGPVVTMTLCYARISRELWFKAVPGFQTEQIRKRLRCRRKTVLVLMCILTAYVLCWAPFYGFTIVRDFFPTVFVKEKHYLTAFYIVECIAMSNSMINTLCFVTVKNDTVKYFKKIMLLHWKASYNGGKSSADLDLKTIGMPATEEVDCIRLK

Consider “AVITGACDKDSQCGGGMCCAVSIWVK SIRICTPMGKLGDSCHPLTRKNNFGNGRQE (AVITGACDKDSQCGGGMCCAVSIWVKSIRICTPMGKLGDSCHPLTRKNNFGNGRQE; listed as Homo sapiens) [PK2β, 56-amino acid mature peptide processed from PK2L pro-peptide by proteolytic (furin) cleavage; recombinant from COS-7 cells]”, for which the “Agonist character at PKR1, in words” value with PKR1 [1] is given as “potent full agonist”. For the same sequence, in the experiment with PKR2 [2] (PKR1 versus PKR2, FIGS. 5A, 5B), the “Receptor selectivity in Ca2+ mobilization, in words” value is recorded as “only active at PKR1”. Besides, the “Ca2+ response potency in PKR2-expressing cells, fold less potent than PK1 and PK2” value with PKR2 [2] (relative to PK1 and PK2) is reported as “approximately 50 fold”. In the experiment with PKR1 [3], the “Binding to PKR1, in words” value is “high affinities”. Also, the “Binding to PKR2, in words” value with PKR2 [4] is on record as “marginal active at high concentrations”. In addition, the “cAMP accumulation in PKR2 expressing HEK293 cells, in words” value in the experiment with PKR2 [5] is listed as “marginal activity at high concentrations”.
